Test results as given in US20110243962A1 (GENEURO, published 2011).

Target: T1, MSRV complete ENV protein (ENV-T), recombinant from E. coli (MSRV (Multiple Sclerosis associated …))
T1 chain: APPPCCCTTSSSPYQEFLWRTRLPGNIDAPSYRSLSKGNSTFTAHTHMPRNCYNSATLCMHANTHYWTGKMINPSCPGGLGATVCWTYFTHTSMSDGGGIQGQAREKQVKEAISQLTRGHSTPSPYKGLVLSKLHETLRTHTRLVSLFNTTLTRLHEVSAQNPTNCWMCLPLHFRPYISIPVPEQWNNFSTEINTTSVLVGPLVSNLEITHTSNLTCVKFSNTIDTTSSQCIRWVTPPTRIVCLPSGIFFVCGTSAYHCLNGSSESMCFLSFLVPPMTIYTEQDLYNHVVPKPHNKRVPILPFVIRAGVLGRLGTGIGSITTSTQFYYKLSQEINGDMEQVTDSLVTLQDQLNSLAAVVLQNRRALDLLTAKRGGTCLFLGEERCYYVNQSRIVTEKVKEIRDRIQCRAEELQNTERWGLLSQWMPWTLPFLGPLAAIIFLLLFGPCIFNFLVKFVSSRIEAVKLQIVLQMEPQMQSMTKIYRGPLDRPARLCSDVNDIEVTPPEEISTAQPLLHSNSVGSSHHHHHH
Experiment: cell-based or functional assay

B1: Chimeric GNb AC1 IgG4 (human IgG4 constant regions with murine VH and VL) (antibody, V domains shown)
VH: QVQLQQSGAELVRPGASVTLSCKASGYTFTDYEMHWVKQTPVHGLEWIGAVAPETGGTAYNQKFKGKATLTAAKSSSTAYMELRSLTSEDSAVYYCTSTVVPFAYWGQGTLVTVSA
VL: QIVLTQSPAIMSASPGEKVTISCSASSSVSYMYWYQQKPGSSPKAWIYRTSNLASGVPGRFSGSGSGTSYSLTISSMEAEDAATYYCQQYQSLPLTFGSGTKLEIKR
notes: also called GNbAC1 chimeric IgG4; GNbAC1-IgC4
IL-6 at 24 h in PBMC culture with ENV-T 0.1 ug/ml, MAb ratio 10/1 (no antibody: 4363): 2270
